Laboratory results published in US20080293922A1.

Target: β-amyloid peptide Aβ1-40 (Homo sapiens (Human)) (UniProt P05067)
Experiment: Dissociation of 125I-VEGF165 from resuspended Aβ1-40/VEGF co-aggregate, radioactivity in supernatant

Vascular endothelial growth factor VEGF165, sequence (P15692 other isoform, or with tags, fused parts or gaps): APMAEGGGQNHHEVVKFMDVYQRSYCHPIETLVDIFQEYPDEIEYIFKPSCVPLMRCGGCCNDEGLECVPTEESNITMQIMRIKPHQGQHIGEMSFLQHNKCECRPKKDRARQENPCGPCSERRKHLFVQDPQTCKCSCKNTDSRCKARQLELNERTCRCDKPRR

Vascular endothelial growth factor VEGF165 (from UniProt P15692 207-395) (ligand)
percent of VEGF released from the Aβ/VEGF complex after 3 days: < 1.5%
